Measurements taken from the supplement of paper PMC9112550, “Optimization of the antimicrobial peptide Bac7 by deep mutational scanning” (BMC Biology, 2022).

Each sequence was assayed on Escherichia coli TOP10 (assay: shrunken log2 fold change of peptide-encoding DNA abundance (4.5 h post-induction vs induction); higher = less antimicrobial activity (less host growth inhibition)). Details: time post-induction: 4.5 h; library: site-saturation at positions 5, 18, 19, 20.
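Note: peptides expressed intracellularly from a pBAD plasmid library in pooled LB shake-flask culture, induced with 0.3% L-arabinose, DNA abundance read by NGS, three biological replicates, DESeq2 with apeglm shrinkage.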

Sequence | shrunken log2 fold change
RRIRRRPPRLPRPRPRPIHGPRP | -0.302
RRIRVRPPRLPRPRPRPNQGPRP | -0.129
RRIRMRPPRLPRPRPRPYYLPRP | -0.326
RRIRARPPRLPRPRPRPDWQPRP | 0.281
RRIRTRPPRLPRPRPRPNWYPRP | -0.382
RRIRHRPPRLPRPRPRPRFGPRP | 0.0573
RRIRMRPPRLPRPRPRPENYPRP | -0.0708
RRIRNRPPRLPRPRPRPPAIPRP | 0.276
RRIRKRPPRLPRPRPRPTFTPRP | 0.186
RRIRFRPPRLPRPRPRPINWPRP | -0.113
RRIRERPPRLPRPRPRPQTEPRP | -0.0317
RRIRYRPPRLPRPRPRPHHMPRP | -0.311
RRIRGRPPRLPRPRPRPAPTPRP | 1.2
RRIRHRPPRLPRPRPRPGVYPRP | -0.138
RRIRMRPPRLPRPRPRPRPIPRP | 0.754
RRIRLRPPRLPRPRPRPFHMPRP | -0.16
RRIRFRPPRLPRPRPRPAGAPRP | 0.515
RRIRTRPPRLPRPRPRPRVWPRP | 0.382
RRIRGRPPRLPRPRPRPGGYPRP | 0.505
RRIRERPPRLPRPRPRPILVPRP | 0.028
RRIRDRPPRLPRPRPRPPPMPRP | 0.519
RRIRWRPPRLPRPRPRPVIIPRP | -0.219
RRIRLRPPRLPRPRPRPRDLPRP | 0.0268

Sequence | shrunken log2 fold change
RRIRKRPPRLPRPRPRPHRGPRP | 0.0594
RRIRARPPRLPRPRPRPRDAPRP | 0.91
RRIRGRPPRLPRPRPRPSTSPRP | 0.315
RRIRWRPPRLPRPRPRPIEAPRP | 0.199
RRIRQRPPRLPRPRPRPWMLPRP | -0.267
RRIRQRPPRLPRPRPRPVEFPRP | 0.0188
RRIRRRPPRLPRPRPRPEFVPRP | -0.0836
RRIRKRPPRLPRPRPRPGIGPRP | 0.39
RRIRFRPPRLPRPRPRPIRNPRP | -0.0537
RRIRGRPPRLPRPRPRPQKCPRP | 0.122
RRIRERPPRLPRPRPRPRYKPRP | -0.0357
RRIRKRPPRLPRPRPRPKFGPRP | 0.0786
RRIRFRPPRLPRPRPRPGMIPRP | -0.224
RRIRWRPPRLPRPRPRPITGPRP | 0.047
RRIRNRPPRLPRPRPRPSPVPRP | 0.00108
RRIRIRPPRLPRPRPRPANQPRP | -0.693
RRIRDRPPRLPRPRPRPFIGPRP | -0.158
RRIRMRPPRLPRPRPRPDKWPRP | 0.934
RRIRYRPPRLPRPRPRPYLVPRP | -0.536
RRIRFRPPRLPRPRPRPREQPRP | 0.204
RRIRHRPPRLPRPRPRPNVPPRP | -0.0223
RRIRERPPRLPRPRPRPPCSPRP | -0.258
RRIRDRPPRLPRPRPRPYQMPRP | -0.796

Sequence | shrunken log2 fold change
RRIRMRPPRLPRPRPRPEIHPRP | 0.176
RRIRDRPPRLPRPRPRPVAQPRP | 0.616
RRIRFRPPRLPRPRPRPAAPPRP | 0.745
RRIRQRPPRLPRPRPRPNQSPRP | -0.0722
RRIRRRPPRLPRPRPRPWTNPRP | 0.0119
RRIRFRPPRLPRPRPRPFLRPRP | -0.313
RRIRFRPPRLPRPRPRPVFKPRP | -0.57
RRIRERPPRLPRPRPRPVLNPRP | -0.54
RRIRPRPPRLPRPRPRPLHEPRP | 0.236
RRIRKRPPRLPRPRPRPMKCPRP | 0.0794
RRIRVRPPRLPRPRPRPSNYPRP | -0.342
RRIRPRPPRLPRPRPRPEWYPRP | 0.203
RRIRHRPPRLPRPRPRPKCIPRP | -0.021
RRIRIRPPRLPRPRPRPPDAPRP | 0.5
RRIRCRPPRLPRPRPRPVCYPRP | -0.269
RRIRYRPPRLPRPRPRPCKKPRP | -0.0222
RRIRTRPPRLPRPRPRPSVAPRP | 0.00143
RRIRSRPPRLPRPRPRPVGFPRP | 0.334
RRIRPRPPRLPRPRPRPHEGPRP | 0.0172
RRIRRRPPRLPRPRPRPCFNPRP | -0.271
RRIRPRPPRLPRPRPRPYPMPRP | -0.0996
RRIRARPPRLPRPRPRPKNNPRP | -0.0541
RRIRHRPPRLPRPRPRPDMYPRP | -0.00022

Sequence | shrunken log2 fold change
RRIRIRPPRLPRPRPRPYNSPRP | -0.0199
RRIRFRPPRLPRPRPRPTEAPRP | 0.332
RRIRVRPPRLPRPRPRPKLGPRP | 0.173
RRIRARPPRLPRPRPRPPRSPRP | 1.12
RRIRARPPRLPRPRPRPWADPRP | 0.0394
RRIRPRPPRLPRPRPRPIRTPRP | 0.289
RRIRGRPPRLPRPRPRPMGAPRP | 0.821
RRIRCRPPRLPRPRPRPTAWPRP | 0.79
RRIRLRPPRLPRPRPRPDMGPRP | 0.0446
RRIRSRPPRLPRPRPRPHRHPRP | -0.0713
RRIRGRPPRLPRPRPRPIFIPRP | -0.0812
RRIRHRPPRLPRPRPRPPWDPRP | 0.131
RRIRHRPPRLPRPRPRPMSFPRP | -0.089
RRIRERPPRLPRPRPRPLHGPRP | -0.212
RRIRHRPPRLPRPRPRPNMMPRP | -0.263
RRIRKRPPRLPRPRPRPMFLPRP | -0.0587
RRIRDRPPRLPRPRPRPDGGPRP | -0.00182
RRIRARPPRLPRPRPRPADHPRP | 0.0196
RRIRARPPRLPRPRPRPTCTPRP | 0.764
RRIRIRPPRLPRPRPRPSKRPRP | -0.622
RRIRMRPPRLPRPRPRPEFSPRP | 1.51
RRIRWRPPRLPRPRPRPKYYPRP | -0.84
